Experimental data reported in PMC4961847 (2016).

Target: PD-L1 ECD (Homo sapiens, UniProt Q9NZQ7)
Experiment: magneto-nanosensor

Sequence of PD-L1 ECD (Q9NZQ7 19-238): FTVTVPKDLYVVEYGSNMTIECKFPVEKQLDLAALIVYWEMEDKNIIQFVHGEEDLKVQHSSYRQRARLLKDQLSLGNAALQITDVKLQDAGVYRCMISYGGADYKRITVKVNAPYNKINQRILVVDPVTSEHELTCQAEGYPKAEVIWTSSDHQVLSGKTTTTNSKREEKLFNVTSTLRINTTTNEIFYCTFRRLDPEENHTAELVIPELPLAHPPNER

B1: PD-L2 ECD (protein)
chain: LFTVTVPKELYIIEHGSNVTLECNFDTGSHVNLGAITASLQKVENDTSPHRERATLLEEQLPLGKASFHIPQVQVRDEGQYQCIIIYGVAWDYKYLTLKVKASYRKINTHILKVPETDEVELTCQATGYPLAEVSWPNVSVPANTSHSRTPEGLYQVTSVLRLKPPPGRNFSCVFWNTHVRELTLASIDLQSQMEPRTHPT
B1 showed a Kd of 9.1 µM.
